Key:
Test in all cases: cell-based or functional assay
双组分毒素HlgA+LukF = 双组分毒素HlgA+LukF (金黄色葡萄球菌 (Staphylococcus aureus), UniProt P0A074 30-309; P31715 26-323)
双组分毒素HlgA+LukD = 双组分毒素HlgA+LukD (金黄色葡萄球菌 (Staphylococcus aureus), UniProt P0A074 30-309; O54082 27-327)
双组分毒素HlgAB = 双组分毒素HlgAB (金黄色葡萄球菌 (Staphylococcus aureus), UniProt P0A074 30-309; P0A077 26-325)

Measured: 兔红细胞溶血中和 (上清OD405)

B1: 鼠源抗原结合蛋白17C7 (antibody, V domains shown)
VH: EVQLQQSGAELVRSGASVKLSCTASGFNIKDYYMHWVKQRPEQGLEWIGWIDPENDIGEYAPKFQGKATMTADTSSNTAYLQLSSLTSEDTAVYFCNALWGGVLDYWGQGTSVTVSA
VL: DVVMTQTPLSLPVSLGDQASISCRSSQSLVNSNGNTYLHWYLQKPGQSPNLLIYRVSNRFSGVPDRFSGSGSGTDFTLKISRVEAEDLGVYFCSQSTHVPYTFGGGTKLEIKR
4 µg: 双组分毒素HlgA+LukF | 双组分毒素HlgA+LukD | 双组分毒素HlgAB

— patent publication CN114957460A (dated 2022)
